# Measurements: paper PMC4405178 (Biochemistry, 2015)
# T1: C-terminally truncated Ste2p H94Y (Saccharomyces cerevisiae, UniProt D6VTK4 1-303, H94Y)
# T1 sequence (looked up): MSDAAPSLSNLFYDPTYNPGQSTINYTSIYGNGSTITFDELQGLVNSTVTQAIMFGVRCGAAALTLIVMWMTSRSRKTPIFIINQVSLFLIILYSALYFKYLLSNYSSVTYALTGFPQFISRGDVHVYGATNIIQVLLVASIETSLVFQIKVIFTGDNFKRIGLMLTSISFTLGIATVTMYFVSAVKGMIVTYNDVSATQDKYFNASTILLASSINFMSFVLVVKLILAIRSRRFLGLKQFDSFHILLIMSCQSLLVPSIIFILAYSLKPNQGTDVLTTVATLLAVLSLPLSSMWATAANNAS
# T2: C-terminally truncated Ste2p V49D (Saccharomyces cerevisiae, UniProt D6VTK4 1-303, V49D)
# T2 sequence (looked up): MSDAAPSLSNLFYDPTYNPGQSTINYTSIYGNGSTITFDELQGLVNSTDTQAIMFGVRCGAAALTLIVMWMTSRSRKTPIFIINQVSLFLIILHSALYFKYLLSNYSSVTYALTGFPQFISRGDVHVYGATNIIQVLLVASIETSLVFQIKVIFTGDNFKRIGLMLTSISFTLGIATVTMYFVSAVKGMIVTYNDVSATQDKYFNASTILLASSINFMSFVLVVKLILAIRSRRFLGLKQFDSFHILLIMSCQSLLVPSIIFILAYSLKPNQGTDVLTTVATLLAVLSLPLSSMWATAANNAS
# T3: C-terminally truncated Ste2p F38Y (Saccharomyces cerevisiae, UniProt D6VTK4 1-303, F38Y)
# T3 sequence (looked up): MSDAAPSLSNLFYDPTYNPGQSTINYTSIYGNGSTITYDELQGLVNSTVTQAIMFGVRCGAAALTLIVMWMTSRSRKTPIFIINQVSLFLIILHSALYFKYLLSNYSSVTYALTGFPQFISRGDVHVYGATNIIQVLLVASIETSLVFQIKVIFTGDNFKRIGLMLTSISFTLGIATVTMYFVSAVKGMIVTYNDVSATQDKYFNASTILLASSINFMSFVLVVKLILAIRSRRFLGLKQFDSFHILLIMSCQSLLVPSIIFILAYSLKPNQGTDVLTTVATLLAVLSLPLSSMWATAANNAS
# T4: full-length Ste2p V49D (Saccharomyces cerevisiae, UniProt D6VTK4 1-431, V49D)
# T4 sequence (looked up): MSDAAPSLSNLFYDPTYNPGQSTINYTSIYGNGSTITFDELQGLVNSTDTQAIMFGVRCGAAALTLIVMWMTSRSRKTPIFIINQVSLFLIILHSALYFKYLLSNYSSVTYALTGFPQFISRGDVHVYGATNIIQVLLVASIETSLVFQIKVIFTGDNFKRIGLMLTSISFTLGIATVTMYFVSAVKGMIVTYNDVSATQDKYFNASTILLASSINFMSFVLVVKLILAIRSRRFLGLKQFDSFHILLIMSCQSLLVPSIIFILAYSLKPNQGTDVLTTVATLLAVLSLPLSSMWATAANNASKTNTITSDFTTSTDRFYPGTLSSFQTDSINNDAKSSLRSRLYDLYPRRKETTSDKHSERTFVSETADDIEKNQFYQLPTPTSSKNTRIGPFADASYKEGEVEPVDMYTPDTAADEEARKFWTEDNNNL
# T5: C-terminally truncated wild-type Ste2p (Saccharomyces cerevisiae, UniProt D6VTK4 1-303)
# T5 sequence (looked up): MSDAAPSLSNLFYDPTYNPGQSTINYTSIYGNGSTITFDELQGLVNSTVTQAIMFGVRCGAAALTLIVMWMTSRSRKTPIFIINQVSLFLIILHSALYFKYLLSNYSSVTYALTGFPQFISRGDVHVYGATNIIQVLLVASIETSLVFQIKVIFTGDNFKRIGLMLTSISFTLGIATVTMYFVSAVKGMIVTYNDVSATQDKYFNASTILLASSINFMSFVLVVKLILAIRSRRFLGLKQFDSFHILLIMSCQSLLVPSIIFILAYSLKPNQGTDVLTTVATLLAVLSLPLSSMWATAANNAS
# T6: full-length Ste2p S95Y (Saccharomyces cerevisiae, UniProt D6VTK4 1-431, S95Y)
# T6 sequence (looked up): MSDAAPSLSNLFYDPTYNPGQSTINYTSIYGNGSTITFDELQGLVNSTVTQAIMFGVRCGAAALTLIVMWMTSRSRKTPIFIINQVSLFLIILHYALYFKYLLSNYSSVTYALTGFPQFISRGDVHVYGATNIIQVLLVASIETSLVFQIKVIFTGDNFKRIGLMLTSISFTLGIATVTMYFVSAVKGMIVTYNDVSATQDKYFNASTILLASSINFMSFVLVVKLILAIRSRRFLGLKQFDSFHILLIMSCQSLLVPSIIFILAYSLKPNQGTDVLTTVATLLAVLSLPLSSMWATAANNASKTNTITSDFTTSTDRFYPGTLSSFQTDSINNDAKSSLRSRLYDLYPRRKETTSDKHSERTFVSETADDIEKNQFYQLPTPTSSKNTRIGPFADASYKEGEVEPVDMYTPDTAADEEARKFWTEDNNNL
# Experiments:
# Assay in all cases: flow cytometry on cells
# [1] = molecular target: T1, C-terminally truncated Ste2p H94Y
# [2] = molecular target: T2, C-terminally truncated Ste2p V49D
# [3] = molecular target: T3, C-terminally truncated Ste2p F38Y
# [4] = molecular target: T4, full-length Ste2p V49D
# [5] = molecular target: T5, C-terminally truncated wild-type Ste2p
# [6] = molecular target: T6, full-length Ste2p S95Y
binder,measurement,setting,value
"WHWLQLKPGQPMY (NBD (7-nitrobenz-2-oxa-1,3-diazol-4-yl) conjugated to the lysine at position 7; norleucine at position 12 in place of methionine) [[K^7(NBD),Nle^12] α-factor]",Kd,[1],90 ± 12 nM
same,Kd,[2],35 ± 4 nM
same,Kd,[3],64 ± 7.9 nM
same,Kd,[4],49 ± 20 nM
same,Kd,[5],45 ± 1.7 nM
same,Kd,[6],2.1 ± 1.5 nM
